Results from PMC5300761.
Several values for one entry are separate records, joined by “and”; a condition that tells them apart may be missing. Equal entries are not always repeated.

Key:
CRD-BP WT (mouse) [1] = molecular target: CRD-BP WT (mouse) (UniProt O88477); experiment: EMSA; details: EMSA as in refs 21,22 (buffer not given; competitor preincubation 35 C), FP: binding buffer stock 10 mM Tris-HCl pH 7.4, 2.5 mM EDTA, 5% glycerol, 0.002% …
CRD-BP Y5A (mouse) = experiment: EMSA; details: EMSA as in refs 21,22 (buffer not given; competitor preincubation 35 C); FP: binding buffer stock 10 mM Tris-HCl pH 7.4, 2.5 mM EDTA, 5% glycerol, 0.002% …
CRD-BP D526E (mouse) = experiment: EMSA; details: EMSA as in refs 21,22 (buffer not given; competitor preincubation 35 C); FP: binding buffer stock 10 mM Tris-HCl pH 7.4, 2.5 mM EDTA, 5% glycerol, 0.002% …
CRD-BP KH3-4 (mouse) = experiment: EMSA; details: EMSA as in refs 21,22 (buffer not given; competitor preincubation 35 C); FP: binding buffer stock 10 mM Tris-HCl pH 7.4, 2.5 mM EDTA, 5% glycerol, 0.002% …
CRD-BP Y5A Y5A (mouse) = CRD-BP Y5A Y5A (mouse) (UniProt O88477); experiment: EMSA; details: EMSA as in refs 21,22 (buffer not given; competitor preincubation 35 C); FP: binding buffer stock 10 mM Tris-HCl pH 7.4, 2.5 mM EDTA, 5% glycerol, 0.002% …
CRD-BP Y5A Y5A (mouse), sequence (O88477 other isoform, or with tags, fused parts or gaps): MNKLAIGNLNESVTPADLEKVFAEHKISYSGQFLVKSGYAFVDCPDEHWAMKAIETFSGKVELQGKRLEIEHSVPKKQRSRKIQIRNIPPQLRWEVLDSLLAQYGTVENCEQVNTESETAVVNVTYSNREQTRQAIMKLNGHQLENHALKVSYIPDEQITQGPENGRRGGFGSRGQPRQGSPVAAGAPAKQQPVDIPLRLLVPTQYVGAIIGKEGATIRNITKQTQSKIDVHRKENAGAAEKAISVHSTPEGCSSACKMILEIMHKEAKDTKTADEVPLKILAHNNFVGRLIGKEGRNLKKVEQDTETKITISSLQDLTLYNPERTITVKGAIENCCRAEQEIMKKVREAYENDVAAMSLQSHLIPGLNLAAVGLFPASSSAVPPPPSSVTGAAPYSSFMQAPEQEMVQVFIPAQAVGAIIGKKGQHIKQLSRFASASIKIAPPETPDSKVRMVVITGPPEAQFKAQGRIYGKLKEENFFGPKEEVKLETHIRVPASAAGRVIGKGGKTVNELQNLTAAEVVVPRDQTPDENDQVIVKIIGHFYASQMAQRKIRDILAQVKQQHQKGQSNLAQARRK

CRD-BP KH3 G422D (mouse) = CRD-BP KH3 G422D (mouse) (UniProt O88477); experiment: EMSA; details: EMSA as in refs 21,22 (buffer not given; competitor preincubation 35 C); FP: binding buffer stock 10 mM Tris-HCl pH 7.4, 2.5 mM EDTA, 5% glycerol, 0.002% …
CRD-BP KH3 G422D (mouse), sequence (O88477 whole entry G422D): as the sequence (O88477 other isoform, or with tags, fused parts or gaps) above, with A5Y, G422D counted along it

CRD-BP KH1 G212D (mouse) = CRD-BP KH1 G212D (mouse) (UniProt O88477); experiment: EMSA; details: EMSA as in refs 21,22 (buffer not given; competitor preincubation 35 C); FP: binding buffer stock 10 mM Tris-HCl pH 7.4, 2.5 mM EDTA, 5% glycerol, 0.002% …
CRD-BP KH1 G212D (mouse), sequence (O88477 whole entry G212D): as the sequence (O88477 other isoform, or with tags, fused parts or gaps) above, with A5Y, G212D counted along it

[2] = molecular target: CRD-BP KH3-4 G422D;G504D (mouse) (UniProt O88477); experiment: EMSA; details: EMSA as in refs 21,22 (buffer not given; competitor preincubation 35 C); FP: binding buffer stock 10 mM Tris-HCl pH 7.4, 2.5 mM EDTA, 5% glycerol, 0.002% …
CRD-BP KH3-4 G422D;G504D (mouse), sequence (O88477 whole entry G422D/G504D): as the sequence (O88477 other isoform, or with tags, fused parts or gaps) above, with A5Y, G422D, G504D counted along it

CRD-BP KH2 G293D (mouse) = CRD-BP KH2 G293D (mouse) (UniProt O88477); experiment: EMSA; details: EMSA as in refs 21,22 (buffer not given; competitor preincubation 35 C); FP: binding buffer stock 10 mM Tris-HCl pH 7.4, 2.5 mM EDTA, 5% glycerol, 0.002% …
CRD-BP KH2 G293D (mouse), sequence (O88477 whole entry G293D): as the sequence (O88477 other isoform, or with tags, fused parts or gaps) above, with A5Y, G293D counted along it

CRD-BP KH4 G504D (mouse) = CRD-BP KH4 G504D (mouse) (UniProt O88477); experiment: EMSA; details: EMSA as in refs 21,22 (buffer not given; competitor preincubation 35 C); FP: binding buffer stock 10 mM Tris-HCl pH 7.4, 2.5 mM EDTA, 5% glycerol, 0.002% …
CRD-BP KH4 G504D (mouse), sequence (O88477 whole entry G504D): as the sequence (O88477 other isoform, or with tags, fused parts or gaps) above, with A5Y, G504D counted along it

[3] = molecular target: CRD-BP D526E D526E (mouse) (UniProt O88477); experiment: EMSA; details: EMSA as in refs 21,22 (buffer not given; competitor preincubation 35 C); FP: binding buffer stock 10 mM Tris-HCl pH 7.4, 2.5 mM EDTA, 5% glycerol, 0.002% …
CRD-BP D526E D526E (mouse), sequence (O88477 whole entry D526E): as the sequence (O88477 other isoform, or with tags, fused parts or gaps) above, with A5Y, D526E counted along it

CRD-BP WT (mouse) [4] = molecular target: CRD-BP WT (mouse) (UniProt O88477); experiment: competition; details: EMSA as in refs 21,22 (buffer not given; competitor preincubation 35 C); FP: binding buffer stock 10 mM Tris-HCl pH 7.4, 2.5 mM EDTA, 5% glycerol, 0.002% …

CRD-BP WT (mouse), sequence (O88477 whole entry): as the sequence (O88477 other isoform, or with tags, fused parts or gaps) above, with A5Y counted along it

## GGUUUGCGUCAGAGAAAUGUCUGUCCAUUUUUAUUCAGGGGAAACUUGAUUUGAGAUUUUUAUGCCUGUGACUUCCUUGGAAAUCAAAUGUAAAGUUUAAUUGAAAGAAUGUAAAGCAACCA [MITF RNA 1621-1740]
CRD-BP WT (mouse) [1]
  binding: binds

## GGAUUGUACAAAUAAGUGUGCAGUAUCUGUGAACUGAAUUCACCACAGACUUUAGCUUUCUGAGCAAGAGGA [MITF RNA 1550-1619]
CRD-BP WT (mouse) [1]
  binding: no binding

## MITF RNA 1550-1740
CRD-BP WT (mouse) [1]; 40 nM RNA, compared with deletion RNA
  Kd: 323 nM
CRD-BP WT (mouse) [1]
  Kd: 132 nM
CRD-BP Y5A (mouse)
  Kd: 85 nM
CRD-BP D526E (mouse)
  Kd: 91 nM
CRD-BP KH3-4 (mouse)
  Kd: 155 nM

## GGAUUGUACAAAUAAGUGUGCAGUAUCUGUGAACUGAAUUCACCACAGACUUUAGCUUUCUGAGCAAGAGGAUUUUGCGUCAGAGAAAUGUCUGUCCAUUUUUAUUCAGGGGAAACUUGAUUUGAGAUUUUUAUGCCUGUGACUUCCUUGGAAAUCAAAUGUAAAGUUUAAUUGAAAGAAUGUAAAGCAACCA [MITF RNA 1550-1740]
CRD-BP Y5A Y5A (mouse)
  Kd: 85 nM
CRD-BP WT (mouse) [1]
  Kd: 323 nM and 132 nM
  binding: binds
CRD-BP KH3 G422D (mouse)
  binding: no binding
CRD-BP KH1 G212D (mouse)
  binding: binds
[2]
  Kd: 155 nM
CRD-BP KH2 G293D (mouse)
  binding: no binding
CRD-BP KH4 G504D (mouse)
  binding: no binding
[3]
  Kd: 91 nM
CRD-BP WT (mouse) [4]
  binding: binds

## MITF RNA 1550-1740 (del1621-1669)
CRD-BP WT (mouse) [1]; 40 nM RNA
  Kd: 970 nM

## GGCUGAAUUCACCACAGACUUUAGCUUUCUGAGCAAGAGGAUUUUGCGUCAGAGAAAUGUCUGUCCAUUUUUAUUCAGGGGAAACUUGAUUUGAGAUUUUUAUGCCUGUGACUUCCUUGGAAAUCAAAUGUAAAGUUUAAUUGAAAGAAUGUAAAGCAACCA [MITF RNA 1581-1740]
CRD-BP WT (mouse) [1]
  binding: binds

## GGAUUGUACAAAUAAGUGUGCAGUAUCUGUGAACUGAAUUCACCACAGACUUUAGCUUUCUGAGCAAGAGGAUUUUGCGUCAGAGAAAUGUCUGUCCAUUUUUAUUCAGGGGAAACUUGAUUUGAGAUUUUUAUGCCUGUGACUUCCUUGGAAAUCAAA [MITF RNA 1550-1709]
CRD-BP WT (mouse) [1]
  binding: binds

## GGACACUUGUUAGCGAAUCCUCCCUGCACUGCAUUCGCACAAACUGCUUCCUUUCUUGAUUCGUAGAUUUAAUAACUUACCUGAAGGGGUUUUCUUGAUAAUUUUCCUUUAAUAUGAAAUUUUUUUUCAUGCUUUAUCAAUAGCCCAGGAUAUAUUUUAUUUUUAGAAUUUUGUGAAACAGACUUGUAUAUUCUAUUUUACAACUACAAAUGCCUCCAAAGUA [MITF RNA 1330-1550]
CRD-BP WT (mouse) [1]
  binding: binds more weakly

## GGAUUGUACAAAUAAGUGUGCAGUAUCUGUGAACUGAAUUCACCACAGACUUUAGCUUUCUGAGCAAGAGGAUUUUGCGUCAGAGAAAUGUCUGUCCAUUUUUAUUCAGGGGAAACUUGAUU [MITF RNA 1550-1669]
CRD-BP WT (mouse) [1]
  binding: binds
